24 sequences from the DeepSol protein solubility set can be followed below.

This series is described as follows: soluble on expression in E. coli; label from the status in PepcDB or PDB records.
With “GPLGSMDSPPEGYRRNVGICLMNNDKKIFAASRLDIPDAWQMPQGGIDEGEDPRNAAIRELREETGVTSAEVIAEVPYWLTYDFPPKVREKLNIQWGSDWKGQAQKWFLFKFTGQDQEINLLGDGSEKPEFGEWSWVTPEQLIDLTVEFKKPVYKEVLSVFAPHL”, the “soluble on expression in E. coli” value was “soluble”.
Take “GPQMLSANERLKNNFNILYNQIRQYPAYYFKVASNVPTYSDICQSFSVMYQGFQIVNHSGDVFIHACRENPQSKGDFVGDKFHISIAREQVPLAFQILSGLLFSEDSPIDKWKITDMNRVSQQSRVGIGAQFTLYVKSDQECSQYSALLLHKIRQFIMCLESNLLRSKIAPGEYPASDVRPEDWKYVSYRNELRSDRDGSERQEQMLREEPFYRLMIE”: the “soluble on expression in E. coli” value is given as “soluble”.
Under “GQLNVEHRQFLSQGLQGQSKGQSSVVVQPELYWDFQSGESSFTFTPFFRVDSLDDERTHCDIREALFLTYWDDYELRVGISKVFWGVTESAHLVDVVNQTDAVEAVDGEDKLGQPMVHFTAIKDWGAFHAMVLPYFRERTFAGQDGRLRTEPVISDNAIYESSREEKHIDVAFRYSKMLGDWDIGLSYLYGTNRDPYFRFEQGELKPYYALMSHFGIDVQGIVGDWLWKLESVYRDSYDHHVGVVTGFE” stands “not soluble”; under “GQSLPSVSKEIRELSNRTEQQTSLSDRKESEAFALETVRMISDRTLYLFRLAEGRSWEADVRGRSWASRVLPIVHRLKHGGIPWKQYLSSDSLCMEARLYGKYDSVTGAYRRGVVSFRSDIPQRNKVDDLTALALLGENVYAEEFDFGNRQIFPNPIRREAEAFYTYRLDSLYEKDGITYRRIAFRGLSGLNHGTVTIDATHGQLAILEMRVMMKGVITESYRVELGEVEPGLFLPIGLSVVIDRNRLWASLHNGYSASISYPGEQLDKTVLPVYTPTDSSRYRLPDELPVAPVWAVRSSFGREDSSTYWKNVVVGRDHTLHQHVPWHRALAWGHKYRIGERWRLGNEGLVWALFYYNYADHLWLGQSLTAIYDMAPGIRWEIKPGLYYVTKRRKAVWTLDSKLYYSPPQRGLLQLSAGHRSFDLYSTRERIDQLTDLMMELLNGQGPTTRYDDKFVRLTNSIDLLPKLNVETSVMLAERNPLPHGET”, “not soluble”.
“GRLDHNVEAAMGDETKYARINANRSVSNDYQDGNGDSVHSSWERWNADLALGWKPTQDSWIELKGGKGNGEAAYAGRTMDGTQFQRESLGLHAEQKNLTDVIKKVEAQVDYSYNDHIMDNYKMRTPPMMPMAMEVTRRTLNARAAITTEWDRLNVISGVDSQRNKHAGNMYMRDANPIPPLDGDLRFESYGAFSEWTYRLNP”: the “soluble on expression in E. coli” value is “not soluble”.
Take “GSAAATGPSFWLGNETLKVPLALFALNRQRLCERLRKNPAVQAGSIVVLQGGEETQRYCTDTGVLFRQESFFHWAFGVTEPGCYGVIDVDTGKSTLFVPRLPASHATWMGKIHSKEHFKEKYAVDDVQYVDEIASVLTSQKPSVLLTLRGVNTDSGSVCREASFDGISKFEVNNTILHPEIVECRVFKTDMELEVLRYTNKISSEAHREVMKAVKVGMKEYELESLFEHYCYSRGGMRHSSYTCICGSGENSAVLHYGHAGAPNDRTIQNGDMCLFDMGGEYYCFASDITCSFPANGKFTADQKAVYEAVLRSSRAVMGAMKPGVWWPDMHRLADRIHLEELAHMGILSGSVDAMVQAHLGAVFMPHGLGHFLGIDVHDVGGYPEGVERIDEPGLRSLRTARHLQPGMVLTVEPGIYFIDHLLDEALADPARASFFNREVLQRFRGFGGVRIEEDVVVTDSGIELLTCVPRTVEEIEACMAGCDKAFTPFSGPK”: the “soluble on expression in E. coli” value was “soluble”.
Under GSAAEVMKKYCSTCDISFNYVKTYLAHKQFYCKNKP stands “soluble”.
Consider “GSDQVQKVDQYLYHMRLSDETLLEISKRFRKEMEKGLGATTHPTAAVKMLPTFVRSTPDGTEHGEFLALDLGGTNFRVLWVKVTDNGLQKVEMENQIYAIPEDIMRGSGTQLFDHIAECLANFMDKLQIKDKKLPLGFTFSFPCHQTKLDESFLVSWTKGFKSSGVEGRDVVALIRKAIQRRGDFDIDIVAVVNDTVGTMMTCGYDDHNCEIGLIVGTGSNACYMEEMRHIDMVEGDEGRMCINMEWGAFGDDGSLNDIRTEFDQEIDMGSLNPGKQLFEKMISGMYMGELVRLILVKMAKEELLFGGKLSPELLNTGRFETKDISDIEGEKDGIRKAREVLMRLGLDPTQEDCVATHRICQIVSTRSASLCAATLAAVLQRIKENKGEERLRSTIGVDGSVYKKHPHFAKRLHKTVRRLVPGCDVRFLRSEDGSGKGAAMVTAVAYRLADQHRARQKTLEHLQLSHDQLLEVKRRMKVEMERGLSKETHASAPVKMLPTYVCATPDGTEKGDFLALDLGGTNFRVLLVRVRNGKWGGVEMHNKIYAIPQEVMHGTGDELFDHIVQCIADFLEYMGMKGVSLPLGFTFSFPCQQNSLDESILLKWTKGFKASGCEGEDVVTLLKEAIHRREEFDLDVVAVVNDTVGTMMTCGFEDPHCEVGLIVGTGSNACYMEEMRNVELVEGEEGRMCVNMEWGAFGDNGCLDDFRTEFDVAVDELSLNPGKQRFEKMISGMYLGEIVRNILIDFTKRGLLFRGRISERLKTRGIFETKFLSQIESDCLALLQVRAILQHLGLESTCDDSIIVKEVCTVVARRAAQLCGAGMAAVVDRIRENRGLDALKVTVGVDGTLYKLHPHFAKVMHETVKDLAPKCDVSFLQSEDGSGKGAALITAVACRIREAGQ”, for which the “soluble on expression in E. coli” value is on record as “soluble”.
Under “GSDSAITLWQFLLQLLQKPQNKHMICWTSNDGQFKLLQAEEVARLWGIRKNKPNMNYDKLSRALRYYYVKNIIKKVNGQKFVYKFVSYPEILNMDPMTVGRIEGDCESLNFSEVSSSSKDVENGGKDKPPQPGAKTSSRNDYIHSGLYSSFTLNSLN” stands “soluble”; under “GSERVNYKPGMRVLTKMSGFPWWPSMVVTESKMTSVARKSKPKRAGTFYPVIFFPNKEYLWTGSDSLTPLTSEAISQFLEKPKPKTASLIKAYKMAQSTPDLDSLSVPS”, “soluble”.
As for “GSHMAIDENKQKALAAALGQIEKQFGKGSIMRLGEDRSMDVETISTGSLSLDIALGAGGLPMGRIVEIYGPESSGKTTLTLQVIAAAQREGKTCAFIDAEHALDPIYARKLGVDIDNLLCSQPDTGEQALEICDALARSGAVDVIVVDSVAALTPKAEIEGEIGDSHMGLAARMMSQAMRKLAGNLKQSNTLLIFINQIRMKIGVMFGNPETTTGGNALKFYASVRLDIRRIGAVKEGENVVGSETRVKVVKNKIAAPFKQAEFQILYGEGINFYGELVDLGVKEKLIEKAGAWYSYKGEKIGQGKANATAWLKDNPETAKEIEKKVRELLLSNPNSTPDFSVDDSEGVAETNEDF”, the entry is “soluble”; as for “GSHMASADLVSSCKDKLAYFRIKELKDILNQLGLPKQGKKQDLIDRVLALLTDEQGQRHHGWGRKNSLTKEAVAKIVDDTYRKMQIQCAPDLATRSHSGSDFSFRPIEEA”, “soluble”; as for “GSHMDLETLRARREAVLSLCARHGAVRVRVFGSVARGEAREDSDLDLLVAFEEGRTLLDHARLKLALEGLLGVRVDIVSERGLAPRLREQVLREAIPL”, “soluble”.
Consider “GSHMERPESELIRQSWRVVSRSPLEHGTVLFARLFALEPSLLPLFQYNGRQFSSPEDSLSSPEFLDHIRKVMLVIDAAVTNVEDLSSLEEYLTSLGRKHRAVGVRLSSFSTVGESLLYMLEKSLGPDFTPATRTAWSRLYGAVVQAMSRGWDGE”, for which the “soluble on expression in E. coli” value was “soluble”.
“GSHMIASLSDSVSNAREERMALRQEQEQLQSRIQSLMQRAPVWLAAQNSLNQLSEQCGEEFTSSQDVTEYLQQLLEREREAIVERDEVGARKNAVDEEIERLSQPGGSEDQRLNALAERFGGVLLSEIYDDVSLEDAPYFSALYGPSRHAIVVPDLSQVTEHLEGLTDCPEDLYLIEGDPQSFDDSVFSVDELEKAVVVKIADRQWRYSRFPEVPLFGRAARESRIESLHAEREVLSERFATLSFDVQKTQRLHQAFSRFIGSHLAVAFESDPEAEIRQLNSRRVELERALSNHENDNQQQR”: the “soluble on expression in E. coli” value is recorded as “soluble”.
On to “GSHMKHTELRAAVLDALEKHDTGATFFDGRPAVFDEADFPAVAVYLTGAEYTGEELDSDTWQAELHIEVFLPAQVPDSELDAWMESRIYPVMSDIPALSDLITSMVASGYDYRRDDDAGLWSSADLTYVITYEM”, for which the “soluble on expression in E. coli” value is “soluble”.
Under “GSHMLGERLGIPAPRRIEAFDNSNIYGADPVSALVVFLDGKPAKKEYRKYKVKTVAGPNDYETMREVVRRRYTRVLKEGLPLPDLIIIDGGKGHLSAVRDVLENELGLDVPLAGLAKDEKHRTSELLAGDPPDVVPLDRQSQEFYLLQRIQDEVHRFAVMFHRKTRQKTMFHSVLDDIPGVGEKRKKALLNYFGSVKKMKEATVEELQRANIPRAVAEKIYEKLHE” stands “soluble”.
Take “GSHMNGEPDIAQLKGLSPSQRQAYAVQLKNRGNHFFTAKNFNEAIKYYQYAIELDPNEPVFYSNISACYISTGDLEKVIEFTTKALEIKPDHSKALLRRASANESLGNFTDAMFDLSVLSLNGDFDGASIEPMLERNLNKQAMKVLNENLSKDEGRGSQVLPSNTSLASFFGIFDSHLEVSSVNTSSNYDTAYALLSDALQRLYSATDEGYLVANDLLTKSTDMYHSLLSANTVDDPLRENAALALCYTGIFHFLKNNLLDAQVLLQESINLHPTPNSYIFLALTLADKENSQEFFKFFQKAVDLNPEYPPTYYHRGQMYFILQDYKNAKEDFQKAQSLNPENVYPYIQLACLLYKQGKFTESEAFFNETKLKFPTLPEVPTFFAEILTDRGDFDTAIKQYDIAKRLEEVQEKIHVGIGPLIGKATILARQSSQDPTQLDEEKFNAAIKLLTKACELDPRSEQAKIGLAQLKLQMEKIDEAIELFEDSAILARTMDEKLQATTFAEAAKIQKRLRADPIISAKMELTLARYRAKGML”: the “soluble on expression in E. coli” value is on record as “soluble”.
As for “GSHMNRFLTSIVAWLRAGYPEGIPPTDSFAVLALLCRRLSHDEVKAVANELMRLGDFDQIDIGVVITHFTDELPSPEDVERVRARLAAQGWPLDDVRDREEHA”, the entry is “soluble”; as for “GSHMPSRRMLHTMIRVGDLDRSIKFYTERLGMKVLRKWDVPEDKYTLVFLGYGPEMSSTVLELTYNYGVTSYKHDEAYGHIAIGVEDVKELVADMRKHDVPIDYEDESGFMAFVVDPDGYYIELLNEKTMMEKAEADMKEQGTA”, “soluble”; as for “GSHMQTHAARMRTFMYWPSSVPVQPEQLASAGFYYVGRNDDVKCFCCDGGLRCWESGDDPWVEHAKWFPRCEFLIRMKGQEFVDEIQGRYPHLLEQLLSTS”, “soluble”.
Under “GSHMRIPATIKKKMALPPATPVFTGEKKVEETKITAAIYDEKSVEFKELEVGELESVVRSALALNKKLWIDVVGVHDESLIAKICEFLGIHPLAAEDILNTAQRVKIEDYDDHLFLVLKILLYNETLEIDQLSLVLKKNLVATFEEREYWILDSIRSRLKSGGRMRKLAGDYLAYTILDAVVDSYFEALLKISDEIEVLEDEVVSGDSTLIGKIHSLKREILAFRNAVWPLRDVLSFFTRVEHELIGEEVKVYYRDVYDHAVRLME” stands “soluble”; under “GSHMRPQGATVSLWETVQKWREYRRQCQRSLTEDPPPATDLFCNRTFDEYACWPDGEPGSFVNVSCPWYLPWASSVPQGHVYRFCTAEGLWLQKDNSSLPWRDLSECEESKRGERSSPEEQLLFLY”, “soluble”.
Regarding “GSHMSRILAVHASPRGERSQSRRLAEVFLAAYREAHPQARVARREVGRVPLPAVTEAFVAAAFHPQPEQRSLAMQADLALSDQLVGELFDSDLLVISTPMYNFSVPSGLKAWIDQIVRLGVTFDFVLDNGVAQYRPLLRGKRALIVTSRGGHGFGPGGENQAMNHADPWLRTALGFIGIDEVTVVAAEGEESGGRSFEDSCDEAEQRLLALARSA”, the “soluble on expression in E. coli” value is recorded as “soluble”.
